The chains are these.
B1: HDV Ribozyme (parent)
chain: GGCCGGCAUGGUCCCAGCCUCCUCGCUGGCGCCGGCUGGGCAACAUUCCGAGGGGACCGUCCCCUCGGUAAUGGCGAAUGGGACCCA

The variants in this data set derive from B1. Nature of the data set: self-cleavage, relative activity (ratio to wild type); higher = more cleavage; co-transcriptional.
Consider C63G G81A, for which the self-cleavage came to 0.453.
C63G G81C: the self-cleavage was found to be 0.277.
Then C64U G76U, with 1.15.
Then C64U G76C, with 0.905.
Then C64U G76A, with 1.01.
As for U65A C84A, the self-cleavage was 0.769.
To U65A C84G belongs 0.494; to C64A U69C, 0.782.
Then C63U G81C, with 0.151; and C63U G81A, with 0.521.
Then U65A U72A, with 0.636.
Regarding U65A U72G, the self-cleavage was found to be 0.399.
Then C63A C84G, with 0.759; and C63A C84A, with 0.96.
To C63U G74A belongs 0.546; to C63U G74C, 0.201; to C63U A70U, 0.848.
For U65C G82U, the self-cleavage was 0.567.
As to U65C G82A, the self-cleavage stood at 0.554.
Then C64G U65C, with 0.199.
Then C64G U65G, with 0.943; and C63G A78C, with 0.101.
Then C64G G74U, with 0.635; and C64G G74C, with 0.244.
For C63G A83G, the self-cleavage stood at 0.519.
To C64U A83C belongs 0.332.
With C64U A83U, the self-cleavage is 0.361.
To C63U G68C belongs 0.941; to C63U G68U, 0.8; to C64G U69A, 1.01.
To U65G G82C belongs 0.133; to C64A C84A, 1.15; to C64A C84G, 0.536.
To U65C G80U belongs 0.106; to U65A A83C, 0.504; to U65A A83G, 0.859.
In the case of U65C C75U, the self-cleavage turned out to be 0.185.
To U65C C75A belongs 0.0489.
With U65C C75G, the self-cleavage was 0.482.
Then U65C U72G, with 0.831.
Then C63U G76C, with 0.997.
To C63U G76A belongs 0.855.
In the case of C63G G73C, the self-cleavage is 0.437.
To C64U C86U belongs 0.772.
With C64U C86G, the self-cleavage was 0.972.
Then C64A G67C, with 0.277; and C64A G67A, with 0.369.
U65G C85A: the self-cleavage is 1.11.
To U65C G81U belongs 0.415.
Then U65C G81A, with 0.358; and C63U A87G, with 0.927.
Then C63U A87C, with 0.894; and C64A A70U, with 0.752; and C64A A70G, with 0.749.
Regarding C64A A70C, the self-cleavage was found to be 0.623.
To C63G G80U belongs 0.199.
Then C63G G80C, with 0.147.
Then U65A C86U, with 0.937; and U65A C86A, with 1.07.
Regarding C63A C85A, the self-cleavage turned out to be 0.618.
To C63A C85U belongs 0.911.
Take C64U C84U: the self-cleavage amounted to 0.785.
To C64U C84G belongs 0.869; to C64U C84A, 0.801; to C64G G80A, 0.641.
On to C64G G80C, for which the self-cleavage is 0.305.
To C64G G80U belongs 0.443; to C64G G68A, 0.338; to C64G G68U, 0.136.
To C64A A71C belongs 0.277; to C64A A71U, 0.855; to C64A G82A, 0.282.
To C64A G82U belongs 0.409; to C63G U72A, 0.458; to C63G U72C, 0.344.
On to C64U G82C, for which the self-cleavage amounted to 0.208.
As to C64U G82U, the self-cleavage was 0.486.
To C64U G82A belongs 0.487.
Consider C64G G81U, for which the self-cleavage is 0.312.
To C64G G81A belongs 0.222; to U65C A87G, 0.94.
Then U65C A87U, with 1.08; and C64U U65C, with 0.914.
To C64U U65G belongs 0.784; to C64U U65A, 0.984; to C64G A71G, 1.11.
For the variant C63U U72A, the self-cleavage came to 0.864.
Regarding C63U U72G, the self-cleavage is 0.776.
Then C63U U72C, with 0.751; and C64U G68C, with 0.305.
Then C64U G68A, with 0.821.
To U65G belongs 0.988; to U65C, 1.02.
As to U65A, the self-cleavage was 0.966.
Turning to C63A U79A, the self-cleavage amounted to 0.636.
To C63A U79C belongs 0.455.
Then C64G U79C, with 0.623; and C64G G73A, with 0.594.
To C63U U79G belongs 0.54; to C63U U79C, 0.411; to C63U U79A, 0.997.
In the case of U65C C66A, the self-cleavage worked out at 1.18.
To U65C C66G belongs 1.11.
In the case of C63G C66G, the self-cleavage amounted to 0.201.
C63G C66A: the self-cleavage came out at 0.289.
Then C64A G74C, with 0.242.
Then C64A G74U, with 0.327; and C64A G74A, with 0.295; and C63G G74A, with 0.326.
Then U65C C85A, with 0.991; and C64A A77C, with 0.344.
For the variant U65C G73C, the self-cleavage is 0.283.
To U65G U69G belongs 0.942; to U65G U69A, 1.23.
Then U65G C75U, with 0.212.
To U65A C85G belongs 0.604.
With C63G G68A, the self-cleavage came to 0.366.
C63G G68U: the self-cleavage came out at 0.504.
Consider C64G C85G, for which the self-cleavage was 0.872.
Turning to U65G C66U, the self-cleavage was found to be 0.702.
To C64A A78U belongs 0.285; to C64A A78G, 0.686; to C64A A78C, 0.242.
Then C63G G82C, with 0.136; and C63G G82A, with 0.219.
Then C63G G82U, with 0.289; and C63A C66U, with 0.814; and U65A G81A, with 0.495.
Turning to C63U U69G, the self-cleavage was 0.875.
Then U65G C84U, with 0.704; and U65G C84G, with 0.569; and C64U A70C, with 0.956.
To C64U A70G belongs 0.701; to C64G A70C, 0.536.
Then C64G A70G, with 0.712; and U65C C86A, with 0.673.
In the case of C64G G67C, the self-cleavage worked out at 0.332.
To C64G G67U belongs 0.365; to C63G C85G, 1.02.
Then C63G C85U, with 0.92; and C63G G76A, with 0.974.
Then C63G G76C, with 0.967.
Regarding C63A C75A, the self-cleavage was determined as 0.338.
To C63A C75U belongs 0.0906; to C64A C85U, 0.72; to C66A A70G, 0.745.
To C66A A70C belongs 0.831.
To C63U A77C belongs 0.352.
On to U65A G67U, for which the self-cleavage was found to be 0.767.
U65A G67C: the self-cleavage came out at 0.705.
For C64U A87G, the self-cleavage came out at 1.04.
To U65C G68A belongs 0.959; to U65A G76A, 0.976.
On to C64G A78U, for which the self-cleavage is 0.18.
To C63U C64U belongs 1.08.
Then C63U C64A, with 0.831; and C63U C64G, with 0.809; and U65C G67C, with 0.984.
Then U65C G67A, with 0.706.
U65C G67U: the self-cleavage came to 0.627.
To U65G G80A belongs 0.288; to U65A G68C, 0.
Then C63U A83U, with 0.584; and C64A A87C, with 0.779; and U65G U72A, with 0.739.
Then U65G U72C, with 0.415; and U65G G68A, with 0.772.

The values above are taken from the RNAGym collection of RNA variant scans (doi:10.7554/elife.80360).
